Kd data for one molecule are collected here from PMC9536601 (2022).

The assay deals with human prothrombin (FII) (human, UniProt P00734 44-622, gamma-carboxylated glutamate residues in the Gla domain). Put plainly: SPR.

B1: Ad1 hexon, on wild-type human adenovirus type 1 virions (natural protein)
chain: ATPSMMPQWSYMHISGQDASEYLSPGLVQFARATETYFSLNNKFRNPTVAPTHDVTTDRSQRLTLRFIPVDREDTAYSYKARFTLAVGDNRVLDMASTYFDIRGVLDRGPTFKPYSGTAYNALAPKGAPNSCEWEQEEPTQEMAEELEDEEEAEEEEAEEEAEAPQADQKVKKTHVYAQAPLAGEKITANGLQIVSDTQTEGNPVFADPTYQPEPQVGESQWNEAEATASGGRVLKKTTPMKPCYGSYARPTNKNGGQGILVANNQGALESKVEMQFFAPSGTAMNERNAVQPSIVLYSEDVNMETPDTHISYKPSKTDENSKAMLGQQAMPNRPNYIAFRDNFIGLMYYNSTGNMGVLAGQASQLNAVVDLQDRNTELSYQLLLDSIGDRTRYFSMWNQAVDSYDPDVRIIENHGTEDELPNYCFPLGGIGVTDTYQGIKSNGNGNPQNWTKNDDFAARNEIGVGNNFALEINLNANLWRNFLYSNIALYLPDKLKYTPTNVEISPNPNSYDYMNKRVVAPGLVDCYINLGARWSLDYMDNVNPFNHHRNAGLRYRSMLLGNGRYVPFHIQVPQKFFAIKNLLLLPGSYTYEWNFRKDVNMVLQSSLGNDLRVDGASIKFDSICLYATFFPMAHNTASTLEAMLRNDTNDQSFNDYLSAANMLYPIPANATNVPISIPSRNWAAFRGWAFTRLKTKETPSLGSGYDPYYTYSGSIPYLDGTFYLNHTFKKVAITFDSSVSWPGNDRLLTPNEFEIKRSVDGEGYNVAQCNMTKDWFLVQMLANYNIGYQGFYIPESYKDRMYSFFRNFQPMSRQVVDDTKYKDYQQVGILHQHNNSGFVGYLAPTMREGQAYPANFPYPLIGKTAVDSITQKKFLCDRTLWRIPFSSNFMSMGALTDLGQNLLYANSAHALDMTFEVDPMDEPTLLYVLFEVFDVVRVHQPHRGVIETVYLRTPFSAGNATT
For B1, the Kd worked out at 5 nM.
